Experimental data taken from patent US20020131964A1.

Assays:
[1] = biological target: two chain urokinase (tcuPA) (Homo sapiens (Human)) (UniProt P00749); assay: cell-based or functional assay
[2] = biological target: wild type single chain urokinase (scuPA) (Homo sapiens (Human)) (UniProt P00749); assay: cell-based or functional assay

- EC50 of phenylepherine (PE)-induced contraction of rat aortic rings [1]: 0.029 µM
- EC50 of phenylepherine (PE)-induced contraction of rat aortic rings [2]: 0.029 µM
Substance: soluble recombinant human urokinase receptor (suPAR) (from UniProt Q03405 23-299)
